Values of other authors in article PMC10330345.

Target: BTN3A1 272-513 (Homo sapiens) (UniProt O00481)
Test: ITC

Chain of BTN3A1 272-513 (Homo sapiens) (O00481 272-513): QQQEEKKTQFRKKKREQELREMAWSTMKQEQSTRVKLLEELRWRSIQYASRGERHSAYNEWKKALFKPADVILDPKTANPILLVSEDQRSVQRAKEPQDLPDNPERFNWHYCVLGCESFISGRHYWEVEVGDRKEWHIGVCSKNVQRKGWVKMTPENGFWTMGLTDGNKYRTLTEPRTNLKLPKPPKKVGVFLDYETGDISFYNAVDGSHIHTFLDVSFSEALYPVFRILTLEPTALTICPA

In the case of BTN2A1 271-527 (from UniProt Q7KYR7), the Kd is listed as 890 nM.
